Test results from article PMC3742642 (Structure (London, England : 1993), 2013).

How the values were obtained:
[1] = target: the molecule itself; test: cryo-EM structure
[2] = target: the molecule itself; test: crystal structure
[3] = target: the molecule itself; test: SEC

| Protein | stoichiometry N [1] | stoichiometry N [2] | stoichiometry N [3] |
| --- | --- | --- | --- |
| bacteriophage ϕ6 capsid protein P1, wild type, in P1247 procapsids (natural protein) FNLKVKDLNGSARGLTQAFAIGELKNQLSVGALQLPLQFTRTFSASMTSELLWEVGKGNIDPVMYARLFFQYAQAGGALSVDELVNQFTEYHQSTACNPEIWRKLTAYITGSSNRAIKADAVGKVPPTAILEQLRTLAPSEHELFHHITTDFVCHVLSPLGFILPDAAYVYRVGRTATYPNFYALVDCVRASDLRRMLTALSSVDSKMLQATFKAKGALAPALISQHLANAATTAFERSRGNFDANAVVSSVLTILGRLWSPSTPKELDPSARLRNTNGIDQLRSNLALFIAYQDMVKQRGRAEVIFSDEELSSTIIPWFIEAMSEVSPFKLRPINETTSYIGQTSAIDHMGQPSHVVVYEDWQFAKEITAFTPVKLANNSNQRFLDVEPGISDRMSATLAPIGNTFAVSAFVKNRTAVYEAVSQRGTVNSNGAEMTLGFPSVVERDYALDRDPMVAIAALRTGIVDESLEARASNDLKRSMFNYYAAVMHYAVAHNPEVVVSEHQGVAAEQGSLYLVWNVRTELRIPVGYNAIEGGSIRTPEPLEAIAYNKPIQPSEVLQAKVLDLANHTTSIHIWPWHEASTEFAYEDAYSVTIRNKRYTAEVKEFELLGLGQRRERVRILKPTVAHAIIQMWYSWFVEDDRTLAAARRTSRDDAEKLAIDGRRMQNAVTLLRKIEMIGTTGIGASAVHLAQSRIVDQMAGRGLIDDSSDLHVGINRHRIRIWAGLAVLQMMGLLSRSEAEALTKVLGDSNALGMVVATTDIDPSL | 120 |  |  |
| bacteriophage ϕ6 capsid protein P1, full length, C-terminal His6-tag (natural protein, UniProt P11126 1-769, looked up) MFNLKVKDLNGSARGLTQAFAIGELKNQLSVGALQLPLQFTRTFSASMTSELLWEVGKGNIDPVMYARLFFQYAQAGGALSVDELVNQFTEYHQSTACNPEIWRKLTAYITGSSNRAIKADAVGKVPPTAILEQLRTLAPSEHELFHHITTDFVCHVLSPLGFILPDAAYVYRVGRTATYPNFYALVDCVRASDLRRMLTALSSVDSKMLQATFKAKGALAPALISQHLANAATTAFERSRGNFDANAVVSSVLTILGRLWSPSTPKELDPSARLRNTNGIDQLRSNLALFIAYQDMVKQRGRAEVIFSDEELSSTIIPWFIEAMSEVSPFKLRPINETTSYIGQTSAIDHMGQPSHVVVYEDWQFAKEITAFTPVKLANNSNQRFLDVEPGISDRMSATLAPIGNTFAVSAFVKNRTAVYEAVSQRGTVNSNGAEMTLGFPSVVERDYALDRDPMVAIAALRTGIVDESLEARASNDLKRSMFNYYAAVMHYAVAHNPEVVVSEHQGVAAEQGSLYLVWNVRTELRIPVGYNAIEGGSIRTPEPLEAIAYNKPIQPSEVLQAKVLDLANHTTSIHIWPWHEASTEFAYEDAYSVTIRNKRYTAEVKEFELLGLGQRRERVRILKPTVAHAIIQMWYSWFVEDDRTLAAARRTSRDDAEKLAIDGRRMQNAVTLLRKIEMIGTTGIGASAVHLAQSRIVDQMAGRGLIDDSSDLHVGINRHRIRIWAGLAVLQMMGLLSRSEAEALTKVLGDSNALGMVVATTDIDPSL |  | 5 | 2 |
